In article PMC3253551 (Nature structural & molecular biology, 2011):

T1: 15N-13C-2D triply labeled MPER 27mer (HIV-1 (HxB2))
T1 chain: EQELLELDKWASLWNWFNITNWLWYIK

T2: MPER peptide QQEKNEQELLELDKWASLWNWFNI (binding analysis in membrane environment) (HIV-1 HXB2)
T2 chain: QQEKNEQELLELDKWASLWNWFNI

T3: full-length MPER segment (peptide containing the C-helical MPER region) (HIV-1 HXB2, UniProt P04578)
T3 chain: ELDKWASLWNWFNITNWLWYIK


Assays:
[1] = target: T1, 15N-13C-2D triply labeled MPER 27mer; assay: NMR chemical shift perturbation and cross-saturation transfer
[2] = target: T2, MPER peptide QQEKNEQELLELDKWASLWNWFNI …; assay: SPR
[3] = target: wt MPER peptide of the alanine scan (HIV-1 HXB2, UniProt P04578); assay: SPR
[4] = target: T3, full-length MPER segment (peptide …); assay: SPR
[5] = target: trimeric ADA strain HIV-1 envelope protein GP160 (HIV-1 subtype B, isolate ADA, UniProt Q6TAN8, strain); assay: flow cytometry on cells

| Binder | binding result [1] | Kd [2] [µM] | binding result [3] | binding result [4] | % of cells stained [5] |
| --- | --- | --- | --- | --- | --- |
| 2F5 Fab, wild type (Fab, V domains shown) VH: RITLKESGPPLVKPTQTLTLTCSFSGFSLSDFGVGVGWIRQPPGKALEWLAIIYSDDDKRYSPSLNTRLTITKDTSKNQVVLVMTRVSPVDTATYFCAHRRGPTTLFGVPIARGPVNAMDVWGQGITVTISS VL: ALQLTQSPSSLSASVGDRITITCRASQGVTSALAWYRQKPGSPPQLLIYDASSLESGVPSRFSGSGSGTEFTLTISTLRPEDFATYYCQQLHFYPHTFGGGTRVDVR | binds | – | – | – | – |
| 2F5m F100BS monoclonal antibody (antibody, V domains shown) VH: RITLKESGPPLVKPTQTLTLTCSFSGFSLSDFGVGVGWIRQPPGKALEWLAIIYSDDDKRYSPSLNTRLTITKDTSKNQVVLVMTRVSPVDTATYFCAHRRGPTTLSGVPIARGPVNAMDVWGQGITVTISS VL: ALQLTQSPSSLSASVGDRITITCRASQGVTSALAWYRQKPGSPPQLLIYDASSLESGVPSRFSGSGSGTEFTLTISTLRPEDFATYYCQQLHFYPHTFGGGTRVDVR | – | 0.097 | binds | binds | 12 % of cells stained |
| 2F5m L100AS F100BS monoclonal antibody (antibody, V domains shown) VH: RITLKESGPPLVKPTQTLTLTCSFSGFSLSDFGVGVGWIRQPPGKALEWLAIIYSDDDKRYSPSLNTRLTITKDTSKNQVVLVMTRVSPVDTATYFCAHRRGPTTSSGVPIARGPVNAMDVWGQGITVTISS VL: ALQLTQSPSSLSASVGDRITITCRASQGVTSALAWYRQKPGSPPQLLIYDASSLESGVPSRFSGSGSGTEFTLTISTLRPEDFATYYCQQLHFYPHTFGGGTRVDVR | – | 0.476 | – | binds | 3.9 % of cells stained |
| 2F5 broadly neutralizing monoclonal antibody, wild type (antibody, V domains shown) VH: RITLKESGPPLVKPTQTLTLTCSFSGFSLSDFGVGVGWIRQPPGKALEWLAIIYSDDDKRYSPSLNTRLTITKDTSKNQVVLVMTRVSPVDTATYFCAHRRGPTTLFGVPIARGPVNAMDVWGQGITVTISS VL: ALQLTQSPSSLSASVGDRITITCRASQGVTSALAWYRQKPGSPPQLLIYDASSLESGVPSRFSGSGSGTEFTLTISTLRPEDFATYYCQQLHFYPHTFGGGTRVDVR | – | 0.0031 | binds | binds | 36 % of cells stained |
| 2F5m I100FS monoclonal antibody (antibody, V domains shown) VH: RITLKESGPPLVKPTQTLTLTCSFSGFSLSDFGVGVGWIRQPPGKALEWLAIIYSDDDKRYSPSLNTRLTITKDTSKNQVVLVMTRVSPVDTATYFCAHRRGPTTLFGVPSARGPVNAMDVWGQGITVTISS VL: ALQLTQSPSSLSASVGDRITITCRASQGVTSALAWYRQKPGSPPQLLIYDASSLESGVPSRFSGSGSGTEFTLTISTLRPEDFATYYCQQLHFYPHTFGGGTRVDVR | – | 0.028 | binds | binds | 20 % of cells stained |
